Publication PMC12607630, “ZapC crosslinks FtsZ filaments through a dual-binding mechanism modulated by the intrinsically disordered linker of FtsZ in Escherichia coli” (mBio, 2025)
Numbering of substitutions follows the chain as printed. Several values for one entry are separate records, joined by “and”; a condition that tells them apart may be missing. Identical values can stand only once.

Assays:
Test in all cases: BLI; 6×His-ZapC or its mutants (0.5 µM) loaded on Ni-NTA biosensors, untagged FtsZ or its variants in solution; Octet-Red96, 30°C, 1× Pol buffer (50 mM HEPES-NaOH pH 6.8, 50 mM KCl, 10 mM MgCl2); apparent Kd from the signal at the end of association against concentration, one-site fit; three repeats with mean (X) and SD
Details in all cases: both partners purified
[1] = biological target: T1, FtsZ (untagged, wild type) (Escherichia coli, UniProt P0A9A6 1-383)
T1 construct: also called wild-type FtsZ; source: E. coli BL21(DE3), plasmid pLY17, purified (Ni-NTA); 6×His-SUMO tag removed with Ulp1; not shown: 6×His-SUMO, N-terminal, cleaved
T1 sequence (looked up): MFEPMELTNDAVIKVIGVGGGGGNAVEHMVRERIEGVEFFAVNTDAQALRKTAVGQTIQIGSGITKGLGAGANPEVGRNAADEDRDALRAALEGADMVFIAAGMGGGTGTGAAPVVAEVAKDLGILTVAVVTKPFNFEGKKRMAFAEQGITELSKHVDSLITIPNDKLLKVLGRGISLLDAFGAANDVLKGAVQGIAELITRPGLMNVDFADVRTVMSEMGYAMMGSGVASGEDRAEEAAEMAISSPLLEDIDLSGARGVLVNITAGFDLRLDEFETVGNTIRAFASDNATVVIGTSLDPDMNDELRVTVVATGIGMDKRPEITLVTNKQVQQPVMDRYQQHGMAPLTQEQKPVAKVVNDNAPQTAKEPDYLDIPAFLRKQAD

FtsZ F285S (untagged) = biological target: T2, FtsZ F285S (untagged) (Escherichia coli, UniProt P0A9A6 1-383, F285S)
T2 construct: FtsZ of Escherichia coli with F285S (globular domain); Derivative of pLY17 by site-directed mutagenesis; insert starts at codon 2 as in pLY17; source: E. coli BL21(DE3), plasmid pLY19, purified (Ni-NTA); 6×His-SUMO tag removed with Ulp1; not shown: 6×His-SUMO, N-terminal, cleaved
T2 sequence (looked up): T1 sequence (looked up) with F285S

[2] = biological target: T1, FtsZ (untagged, wild type); remark: listed apart in the source
FtsZ D360Y (untagged) = biological target: T3, FtsZ D360Y (untagged) (Escherichia coli, UniProt P0A9A6 1-383, D360Y)
T3 construct: FtsZ of Escherichia coli with D360Y (CTL); Derivative of pLY17 by site-directed mutagenesis; source: E. coli BL21(DE3), plasmid pLY339, purified (Ni-NTA); 6×His-SUMO tag removed with Ulp1; not shown: 6×His-SUMO, N-terminal, cleaved
T3 sequence (looked up): T1 sequence (looked up) with D360Y

- Kd [1]: 377 nM and 395 nM and 364 nM and 379 nM
- Kd (FtsZ F285S (untagged)): 5020 nM and 6370 nM and 6130 nM and 5840 nM
- Kd [2]: 377 nM and 395 nM and 488 nM and 420 nM
- Kd (FtsZ D360Y (untagged)): 573 nM and 823 nM and 735 nM and 710 nM
B1: 6×His-ZapC (natural protein)
chain: not shown
notes: ZapC, FtsZ-associated protein of Escherichia coli; Construction of pSD323 is not described; also called His-tagged ZapC; source: E. coli, plasmid pSD323 (pQE80, Plac::6×His-ZapC), purified (Ni-NTA); not shown: His6, N-terminal, kept
